Measured values published in US20240034815A1 (Xencor, published 2024).

How the values were obtained:
His-tagged human GPC3 [1] = target: T1, His-tagged human GPC3 (human, UniProt P51654 25-559, limits assumed); assay: Octet (BLI), His-tagged GPC3 captured on HIS1K sensors, bsAb as analyte
T1 construct: Captured on HIS1K sensors in the Octet assay; also called human GPC3 antigen; Glypican 3; not shown: His tag
Description: (§1) After humanization, GPC3 binding arms were engineered with single point mutations in the variable light domain with the aim to create a ladder of GPC3 binding affinity, illustrative sequences for which are depicted in FIG. 13. 73 variable light domain variants were engineered and paired with GPC3-A H1.1 (see Example 3C for description of GPC3-A H1.1 variant). The GPC3-A variants were engineered in the 1+1 Fab-scFv-Fc bsAb format and binding for GPC3 antigen was measured using Octet, a BioLayer Interferometry (BLI)-based method. Experimental steps for Octet generally include the following: Immobilization (capture of ligand to a biosensor); Association (dipping of ligand-coated biosensors into wells containing the analyte); and Dissociation (returning of biosensors to well containing buffer). For ease of clinical development (e.g. by investigating the therapeutics in model animals), it is useful for the binding domains to be cross-reactive for cynomolgus antigen; therefore, binding to both human and cynomolgus GPC3 antigen were investigated. His-tagged human and cynomolgus GPC3 were captured on HIS1K sensors then dipped into multiple concentrations of the bispecific antibodies. The resulting dissociation constant (KD) are depicted in FIG. 23.

[2] = target: T2, His-tagged cynomolgus GPC3 (cynomolgus, UniProt A0A2K5VK50 24-558); assay: as above
T2 construct: Captured on HIS1K sensors in the Octet assay; also called cynomolgus GPC3 antigen; cyno GPC3; not shown: His tag
Description: as §1

His-tagged human GPC3 [3] = target: T1, His-tagged human GPC3; assay: binding assay not named for this figure; Octet (BLI) is the method of Example 2B
Description: as §1

[4] = target: T2, His-tagged cynomolgus GPC3; assay: as above
Description: as §1

T1 sequence (P51654 25-559 limits assumed): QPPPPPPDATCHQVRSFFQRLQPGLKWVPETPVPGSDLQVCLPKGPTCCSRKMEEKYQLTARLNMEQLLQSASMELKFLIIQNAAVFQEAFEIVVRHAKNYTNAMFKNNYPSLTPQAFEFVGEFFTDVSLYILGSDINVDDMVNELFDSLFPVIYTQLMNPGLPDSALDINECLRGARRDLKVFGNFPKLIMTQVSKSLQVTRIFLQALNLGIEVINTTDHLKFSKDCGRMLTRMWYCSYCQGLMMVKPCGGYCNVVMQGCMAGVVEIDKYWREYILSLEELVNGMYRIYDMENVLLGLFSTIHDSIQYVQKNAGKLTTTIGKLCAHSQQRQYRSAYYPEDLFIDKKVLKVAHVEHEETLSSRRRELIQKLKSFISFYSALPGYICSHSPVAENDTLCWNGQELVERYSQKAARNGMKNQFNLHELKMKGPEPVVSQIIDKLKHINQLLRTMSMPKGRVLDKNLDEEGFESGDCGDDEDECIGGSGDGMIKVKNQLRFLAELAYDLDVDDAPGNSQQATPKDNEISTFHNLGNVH

Row | Binder | Kd (His-tagged human GPC3 [1]) [nM] | Kd [2] [nM] | Kd (His-tagged human GPC3 [3]) [nM] | Kd [4] [nM]
1 | XENP21971_GPC3-A_H1_L1 (bispecific antibody, the sheet prints H1_L1; copies: 1 + 1 + 1) heavy: QVQLVQSGAEVKKPGASVKVSCKASGYTFTDYEMHWVRQAPGQGLEWMGALDPKTGDTAYSQKFQGRVTMTADKSISTAYMELSRLRSDDTAVYYCTRFYSYTYWGQGTLVTVSSASTKGPSVFPLAPSSKSTSGGTAALGCLVKDYFPEPVTVSWNSGALTSGVHTFPAVLQSSGLYSLSSVVTVPSSSLGTQTYICNVNHKPSDTKVDKKVEPKSCDKTHTCPPCPAPPVAGPSVFLFPPKPKDTLMISRTPEVTCVVVDVKHEDPEVKFNWYVDGVEVHNAKTKPREEEYNSTYRVVSVLTVLHQDWLNGKEYKCKVSNKALPAPIEKTISKAKGQPREPQVYTLPPSREEMTKNQVSLTCDVSGFYPSDIAVEWESDGQPENNYKTTPPVLDSDGSFFLYSKLTVDKSRWEQGDVFSCSVMHEALHNHYTQKSLSLSPGK scFv-Fc: not shown light: DVVMTQSPLSLPVTLGQPASISCRSSQSLVHSNGNTYLHWYQQRPGQSPRLLIYKVSNRFSGVPDRFSGSGSGTDFTLKISRVEAEDVGVYFCSQNTHVPPTFGSGTKLEIKRTVAAPSVFIFPPSDEQLKSGTASVVCLLNNFYPREAKVQWKVDNALQSGNSQESVTEQDSKDSTYSLSSTLTLSKADYEKHKVYACEVTHQGLSSPVTKSFNRGEC | 4 | 4 | – | –
2 | XENP36934 H1.1_L1.68 (bispecific antibody, also called [GPC3]H1.1_L1.68; VL N28Y K50Q; copies: 1 + 1 + 1) heavy: QVQLVQSGAEVKKPGASVKVSCKASGYTFTDYEMHWVRQAPGQGLEWMGALEPKTGDTAYSQKFQGRVTMTADKSISTAYMELSRLRSDDTAVYYCTRFYSYTYWGQGTLVTVSSASTKGPSVFPLAPSSKSTSGGTAALGCLVKDYFPEPVTVSWNSGALTSGVHTFPAVLQSSGLYSLSSVVTVPSSSLGTQTYICNVNHKPSDTKVDKKVEPKSCDKTHTCPPCPAPPVAGPSVFLFPPKPKDTLMISRTPEVTCVVVDVKHEDPEVKFNWYVDGVEVHNAKTKPREEEYNSTYRVVSVLTVLHQDWLNGKEYKCKVSNKALPAPIEKTISKAKGQPREPQVYTLPPSREEMTKNQVSLTCDVSGFYPSDIAVEWESDGQPENNYKTTPPVLDSDGSFFLYSKLTVDKSRWEQGDVFSCSVMHEALHNHYTQKSLSLSPGK scFv-Fc: not shown light: DVVMTQSPLSLPVTLGQPASISCRSSQSLVHSYGNTYLHWYQQRPGQSPRLLIYQVSNRFSGVPDRFSGSGSGTDFTLKISRVEAEDVGVYFCSQNTHVPPTFGSGTKLEIKRTVAAPSVFIFPPSDEQLKSGTASVVCLLNNFYPREAKVQWKVDNALQSGNSQESVTEQDSKDSTYSLSSTLTLSKADYEKHKVYACEVTHQGLSSPVTKSFNRGEC | – | – | 370 | 370
3 | XENP34365_GPC3-A_H1.1__L1.16 (bispecific antibody, Another XENP number than XENP35843, which has the same GPC3 Fv) heavy: QVQLVQSGAEVKKPGASVKVSCKASGYTFTDYEMHWVRQAPGQGLEWMGALEPKTGDTAYSQKFQGRVTMTADKSISTAYMELSRLRSDDTAVYYCTRFYSYTYWGQGTLVTVSSASTKGPSVFPLAPSSKSTSGGTAALGCLVKDYFPEPVTVSWNSGALTSGVHTFPAVLQSSGLYSLSSVVTVPSSSLGTQTYICNVNHKPSDTKVDKKVEPKSCDKTHTCPPCPAPPVAGPSVFLFPPKPKDTLMISRTPEVTCVVVDVKHEDPEVKFNWYVDGVEVHNAKTKPREEEYNSTYRVVSVLTVLHQDWLNGKEYKCKVSNKALPAPIEKTISKAKGQPREPQVYTLPPSREEMTKNQVSLTCDVSGFYPSDIAVEWESDGQPENNYKTTPPVLDSDGSFFLYSKLTVDKSRWEQGDVFSCSVMHEALHNHYTQKSLSLSPGK scFv-Fc: not shown light: DVVMTQSPLSLPVTLGQPASISCRSSQSLVHSSGNTYLHWYQQRPGQSPRLLIYKVSNRFSGVPDRFSGSGSGTDFTLKISRVEAEDVGVYFCSQSTHVPPTFGSGTKLEIKRTVAAPSVFIFPPSDEQLKSGTASVVCLLNNFYPREAKVQWKVDNALQSGNSQESVTEQDSKDSTYSLSSTLTLSKADYEKHKVYACEVTHQGLSSPVTKSFNRGEC | 93 | 100 | – | –
4 | XENP34364_GPC3-A_H1.1__L1.29 (bispecific antibody, Another XENP number than XENP36941, which has the same GPC3 Fv) heavy: QVQLVQSGAEVKKPGASVKVSCKASGYTFTDYEMHWVRQAPGQGLEWMGALEPKTGDTAYSQKFQGRVTMTADKSISTAYMELSRLRSDDTAVYYCTRFYSYTYWGQGTLVTVSSASTKGPSVFPLAPSSKSTSGGTAALGCLVKDYFPEPVTVSWNSGALTSGVHTFPAVLQSSGLYSLSSVVTVPSSSLGTQTYICNVNHKPSDTKVDKKVEPKSCDKTHTCPPCPAPPVAGPSVFLFPPKPKDTLMISRTPEVTCVVVDVKHEDPEVKFNWYVDGVEVHNAKTKPREEEYNSTYRVVSVLTVLHQDWLNGKEYKCKVSNKALPAPIEKTISKAKGQPREPQVYTLPPSREEMTKNQVSLTCDVSGFYPSDIAVEWESDGQPENNYKTTPPVLDSDGSFFLYSKLTVDKSRWEQGDVFSCSVMHEALHNHYTQKSLSLSPGK scFv-Fc: not shown light: DVVMTQSPLSLPVTLGQPASISCRSSQSLVHSNGNTYLHWYQQRPGQSPRLLIYQVSNRFSGVPDRFSGSGSGTDFTLKISRVEAEDVGVYFCSQNTHVPPTFGSGTKLEIKRTVAAPSVFIFPPSDEQLKSGTASVVCLLNNFYPREAKVQWKVDNALQSGNSQESVTEQDSKDSTYSLSSTLTLSKADYEKHKVYACEVTHQGLSSPVTKSFNRGEC | 70 | 73 | – | –
5 | XENP36933 H1.1_L1.67 (bispecific antibody, also called [GPC3]H1.1_L1.67; VL G29K Y32W; copies: 1 + 1 + 1) heavy: QVQLVQSGAEVKKPGASVKVSCKASGYTFTDYEMHWVRQAPGQGLEWMGALEPKTGDTAYSQKFQGRVTMTADKSISTAYMELSRLRSDDTAVYYCTRFYSYTYWGQGTLVTVSSASTKGPSVFPLAPSSKSTSGGTAALGCLVKDYFPEPVTVSWNSGALTSGVHTFPAVLQSSGLYSLSSVVTVPSSSLGTQTYICNVNHKPSDTKVDKKVEPKSCDKTHTCPPCPAPPVAGPSVFLFPPKPKDTLMISRTPEVTCVVVDVKHEDPEVKFNWYVDGVEVHNAKTKPREEEYNSTYRVVSVLTVLHQDWLNGKEYKCKVSNKALPAPIEKTISKAKGQPREPQVYTLPPSREEMTKNQVSLTCDVSGFYPSDIAVEWESDGQPENNYKTTPPVLDSDGSFFLYSKLTVDKSRWEQGDVFSCSVMHEALHNHYTQKSLSLSPGK scFv-Fc: not shown light: DVVMTQSPLSLPVTLGQPASISCRSSQSLVHSNKNTWLHWYQQRPGQSPRLLIYKVSNRFSGVPDRFSGSGSGTDFTLKISRVEAEDVGVYFCSQNTHVPPTFGSGTKLEIKRTVAAPSVFIFPPSDEQLKSGTASVVCLLNNFYPREAKVQWKVDNALQSGNSQESVTEQDSKDSTYSLSSTLTLSKADYEKHKVYACEVTHQGLSSPVTKSFNRGEC | – | – | 550 | 600
6 | XENP34368_GPC3-A_H1.1__L1.31 (bispecific antibody, Another XENP number than XENP36140, which has the same GPC3 Fv; copies: 1 + 1 + 1) heavy: QVQLVQSGAEVKKPGASVKVSCKASGYTFTDYEMHWVRQAPGQGLEWMGALEPKTGDTAYSQKFQGRVTMTADKSISTAYMELSRLRSDDTAVYYCTRFYSYTYWGQGTLVTVSSASTKGPSVFPLAPSSKSTSGGTAALGCLVKDYFPEPVTVSWNSGALTSGVHTFPAVLQSSGLYSLSSVVTVPSSSLGTQTYICNVNHKPSDTKVDKKVEPKSCDKTHTCPPCPAPPVAGPSVFLFPPKPKDTLMISRTPEVTCVVVDVKHEDPEVKFNWYVDGVEVHNAKTKPREEEYNSTYRVVSVLTVLHQDWLNGKEYKCKVSNKALPAPIEKTISKAKGQPREPQVYTLPPSREEMTKNQVSLTCDVSGFYPSDIAVEWESDGQPENNYKTTPPVLDSDGSFFLYSKLTVDKSRWEQGDVFSCSVMHEALHNHYTQKSLSLSPGK scFv-Fc: not shown light: DVVMTQSPLSLPVTLGQPASISCRSSQSLVHSNGNTYLHWYQQRPGQSPRLLIYYVSNRFSGVPDRFSGSGSGTDFTLKISRVEAEDVGVYFCSQNTHVPPTFGSGTKLEIKRTVAAPSVFIFPPSDEQLKSGTASVVCLLNNFYPREAKVQWKVDNALQSGNSQESVTEQDSKDSTYSLSSTLTLSKADYEKHKVYACEVTHQGLSSPVTKSFNRGEC | 464 | 485 | – | –
7 | XENP36936 H1.1_L1.70 (bispecific antibody, also called [GPC3]H1.1_L1.70; VL G29K K50Q; copies: 1 + 1 + 1) heavy: QVQLVQSGAEVKKPGASVKVSCKASGYTFTDYEMHWVRQAPGQGLEWMGALEPKTGDTAYSQKFQGRVTMTADKSISTAYMELSRLRSDDTAVYYCTRFYSYTYWGQGTLVTVSSASTKGPSVFPLAPSSKSTSGGTAALGCLVKDYFPEPVTVSWNSGALTSGVHTFPAVLQSSGLYSLSSVVTVPSSSLGTQTYICNVNHKPSDTKVDKKVEPKSCDKTHTCPPCPAPPVAGPSVFLFPPKPKDTLMISRTPEVTCVVVDVKHEDPEVKFNWYVDGVEVHNAKTKPREEEYNSTYRVVSVLTVLHQDWLNGKEYKCKVSNKALPAPIEKTISKAKGQPREPQVYTLPPSREEMTKNQVSLTCDVSGFYPSDIAVEWESDGQPENNYKTTPPVLDSDGSFFLYSKLTVDKSRWEQGDVFSCSVMHEALHNHYTQKSLSLSPGK scFv-Fc: not shown light: DVVMTQSPLSLPVTLGQPASISCRSSQSLVHSNKNTYLHWYQQRPGQSPRLLIYQVSNRFSGVPDRFSGSGSGTDFTLKISRVEAEDVGVYFCSQNTHVPPTFGSGTKLEIKRTVAAPSVFIFPPSDEQLKSGTASVVCLLNNFYPREAKVQWKVDNALQSGNSQESVTEQDSKDSTYSLSSTLTLSKADYEKHKVYACEVTHQGLSSPVTKSFNRGEC | – | – | 130 | 130
